Biological target: T1, Trx-CD20 (thioredoxin-tagged CD20/G4S cassette: Trx, ECL1, (G4S)3 linker, ECL2, C-terminal His-tag) (Homo sapiens, UniProt P11836)
T1 chain: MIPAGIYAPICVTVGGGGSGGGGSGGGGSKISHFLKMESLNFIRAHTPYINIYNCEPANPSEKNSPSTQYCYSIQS
Experiment: ELISA

B1: Zytux (rituximab, Aryogen Pharmed, Iran) (antibody, V domains shown)
VH: QVQLQQPGAELVKPGASVKMSCKASGYTFTSYNMHWVKQTPGRGLEWIGAIYPGNGDTSYNQKFKGKATLTADKSSSTAYMQLSSLTSEDSAVYYCARSTYYGGDWYFNVWGAGTTVTVSA
VL: QIVLSQSPAILSASPGEKVTMTCRASSSVSYIHWFQQKPGSSPKPWIYATSNLASGVPVRFSGSGSGTSYSLTISRVEAEDAATYYCQQWTSNPPTFGGGTKLEIK
- Ka: 2.66e+12 M⁻¹

Reference: publication PMC10024333 (Iranian Journal of Pharmaceutical Research : IJPR, 2022)
